This note sets out measurements from the supplement of paper PMC10567573.

± gives the standard deviation.

The data set is described as follows: protein stability index of a GFP-peptide fusion (GPS, HEK-293T) (PSI 1-6); higher = more stable. To be noted: c terminus: a fixed tail appended.
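Further: 24-mer peptide tiles fused after GFP, lentivirally expressed, FACS-sorted into six equal bins by GFP/DsRed ratio, decoded by Illumina sequencing, PSI is the read-weighted mean bin number.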

YFTWDEVAQRSGCEERWLVIDRKV [FADS1]: the protein stability index was 2.65 ± 0.17 (treatment: DMSO) and 2.82 ± 0.27 (treatment: MLN4924 1 uM, 8 h).
On the same counts, the results for YGEFYKSLTNDWEDHLAVKHFSVE [HSP90AB1] are 2.46 ± 0.31 and 2.87 ± 0.28.
In the case of YKDFLWFFSKRFKSAAMLAVFAVS [SOAT1], the protein stability index by setting is: (treatment: DMSO) 2.25 ± 0.49; (treatment: MLN4924 1 uM, 8 h) 2.4 ± 0.53.
On the same counts, the results for YLDVDLTLTREQTERLSHQITSRV [RTN2] are 3.17 ± 0.18 and 3.23 ± 0.34.
For YLEGFDPFNQSTFNNVVEQNFKNR [DLC1] the same measures were 2.89 ± 0.26 and 3.15 ± 0.39.
On the same counts, the results for YLEKYYNLKNDGRQVEKRRNSGPV [MMP1] are 2.68 ± 0.57 and 3.27 ± 0.4.
Regarding YLNSFLHQRIPQSVRILGSLVAIL [SLC29A1], the protein stability index by setting is: (treatment: DMSO) 2.15 ± 0.25; (treatment: MLN4924 1 uM, 8 h) 2.23 ± 0.21.
For YLSNARPDNWFCYPCIPNHELVWA [ZMYND11] the same measures were 2.67 ± 0.34 and 2.23 ± 0.49.
On the same counts, the results for YQETMVESTFMYLTLDLPTAPLYK [USP39] are 2.36 ± 0.52 and 2.28 ± 0.21.
For YQLELQCCIDWTHVTDPLIGCKKP [SMG5] the same measures were 2.38 ± 0.45 and 2.1 ± 0.3.
In the case of YQRVLPLPIFTPAKMGATKEERED [TCAP], the protein stability index reads like this: (treatment: DMSO) 3.01 ± 0.69; (treatment: MLN4924 1 uM, 8 h) 3.62 ± 0.78.
For YRGAVYADNMEFEQCIKLWLHALH [FEM1B] the same measures were 2.19 ± 0.27 and 2.22 ± 0.48.
On the same counts, the results for YSFISLFIYMVLSLFIALITGAYD [MCOLN1] are 3.14 ± 0.48 and 3.22 ± 0.45.
YSSSRDGYGGSRDSYSSSRSDLYS [RBMX]: the protein stability index is, setting by setting: (treatment: DMSO) 3.51 ± 0.14; (treatment: MLN4924 1 uM, 8 h) 3.79 ± 0.21.
On to YTFVPWLLSFKRGSALEEKENKIL [TNFSF13B], for which the protein stability index runs as follows: (treatment: DMSO) 2.51 ± 0.59; (treatment: MLN4924 1 uM, 8 h) 2.22 ± 0.3.
For YTTEFHELEKIGSGEFGSVFKCVK [WEE1] the same measures were 2.49 ± 0.85 and 3 ± 0.47.
On the same counts, the results for YYTTMQTLTKQDTMLKAMFSGRME [KCTD10] are 2.4 ± 0.16 and 2.4 ± 0.36.
